Drawing on article PMC9712175, this text covers Kd for 1 substance.

The target in this test is extracellular domain (ECD) of human insulin-like growth factor-1 receptor (hIGF-1R) (human) (UniProt P08069). As to the kind of experiment: other fluorescence titration.
UniProt P08069, sequence (P08069 741-935): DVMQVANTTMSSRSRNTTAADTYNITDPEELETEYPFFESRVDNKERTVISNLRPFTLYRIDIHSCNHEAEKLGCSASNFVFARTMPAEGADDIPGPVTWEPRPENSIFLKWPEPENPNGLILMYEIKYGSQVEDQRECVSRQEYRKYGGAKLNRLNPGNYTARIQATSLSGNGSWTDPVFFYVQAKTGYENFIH

Broadly, the Kd is a measure of binding affinity in units of concentration. “full-length human insulin-like growth factor 1 (hIGF1) (from UniProt P05019 22-118) (ligand)” gave a Kd of 90 nM.
